Test results taken from patent US20050130265, “Aiolos, Helios, Daedalos and Ikaros: genes, polypeptides, regulatory elements and uses thereof” (published 2005).

Biological target: T1, Aiolos (GST fusion) (Mus musculus, UniProt O08900 SEQ:1-507)
T1 chain: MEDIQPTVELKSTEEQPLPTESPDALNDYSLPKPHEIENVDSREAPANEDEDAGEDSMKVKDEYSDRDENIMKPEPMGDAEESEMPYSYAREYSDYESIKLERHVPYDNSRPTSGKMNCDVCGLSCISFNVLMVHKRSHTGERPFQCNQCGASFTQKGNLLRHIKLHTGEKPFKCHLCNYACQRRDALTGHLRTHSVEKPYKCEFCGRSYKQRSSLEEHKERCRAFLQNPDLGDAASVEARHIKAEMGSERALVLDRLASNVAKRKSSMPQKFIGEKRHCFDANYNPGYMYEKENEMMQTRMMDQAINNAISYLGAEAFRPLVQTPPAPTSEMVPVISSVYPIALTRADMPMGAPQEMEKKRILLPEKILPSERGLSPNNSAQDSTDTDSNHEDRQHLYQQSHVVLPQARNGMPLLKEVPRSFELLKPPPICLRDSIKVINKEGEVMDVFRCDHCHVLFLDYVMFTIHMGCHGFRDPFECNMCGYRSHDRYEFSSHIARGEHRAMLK
Test: EMSA; 0.5 ug protein, 1-2 ng DNA; binding stated generally for Ikaros consensus sites
Conditions: tags: GST
Description: DNA binding assays (EMSA) were performed essentially as described in Molnar et al. (1994) Mol. Cell. Biol. 14, 8292-8303. GST-Aiolos and Ikaros fusion proteins and their GST fusion partner (0.5 μg) were tested for binding to the IkBD1-[…] (SEQ ID NO:11) oligonucleotide which contains a high affinity Ikaros binding site (100,000 cpm/reaction which equals 1 to 2 ngs of DNA). Competition assays were performed with Ik-BS 1 and with Ik-BS8 TCAGCTTTTGGGggTACCCTGTCA (SEQ ID NO:12) oligonucleotides used at 5-100× molar excess.

B1: IkBS1 (dsDNA)
DNA 1: TCAGCTTTTGGGAATACCCTGTCA
DNA 2: TGACAGGGTATTCCCAAAAGCTGA
B1: binds.
